This is an account of results in article PMC9278091, “ATP‐independent molecular chaperone activity generated under reducing conditions” (Protein Science : A Publication of the Protein Society, 2022).

Sequences and labels used below:
B4: NT*-Bri2 BRICHOScys mutant C164S (NT*-Bri2 BRICHOScys 223-223 dimer) (domain or fragment, human, UniProt Q9Y287 113-231, looked up)
chain: QTIEENIKIFEEEEVEFISVPVPEFADSDPANIVHDFNKKLTAYLDLNLDKSYVIPLNTSIVMPPRNLLELLINIKAGTYLPQSYLIHEHMVITDRIENIDHLGFFIYRLCHDKETYKL
modifications: intermolecular Cys223-Cys223 homodisulfide
notes: Bri2 (integral membrane protein 2B), human, BRICHOS domain, residues 113-231 of full-length human Bri2, C164S; NT* fusion kept as a means to tell the species apart by size; also called Cys223 dimers; source: E. coli, dimer fraction purified with NT* solubility tag

Series [1] concerns the molecule itself. The series is described as follows: SEC; Bri2 BRICHOS monomers, non-incubated or incubated at 37°C without reductant; 20 mM phosphate buffer, 0.2 mM EDTA, pH 8; monomer to dimers and tetramers. Background: In gel filtration, larger molecules generally elute earlier.
Series [2] deals with the molecule itself. Put plainly: non-reducing SDS-PAGE and Western blot; dimer fractions of the NT*-Bri2 BRICHOScys mutants under non-reducing conditions. In general terms: In western blotting, separated proteins are transferred to a membrane and probed.
Series [3] deals with the molecule itself. The series is described as follows: other fluorescence titration; apparent; tryptophan fluorescence emission change upon dimer formation of the T206W mutant, excitation 280 nm, emission 300-400 nm, 96 well plate; single exponential fit; monomer to dimer/assembly.
In series [4] the target is B4. Put plainly: non-reducing SDS-PAGE and Western blot; dimer fractions of Bri2 BRICHOScys mutants with or without NT* mixed 1:1 at 10 μM final protein, 20 mM phosphate buffer pH 8, 0.2 mM EDTA, 0.02% NaN3, 2.5x thrombin inhibitor, 37°C overnight; mixed disulfide band. As to conditions: both partners purified.

Where “and” joins values, the source holds several entries; their conditions need not be identical. Identical values can stand only once.

B1: Bri2 BRICHOS domain (residues 113-231 of full-length human Bri2), wild type (domain or fragment, UniProt Q9Y287 113-231, looked up)
chain: QTIEENIKIFEEEEVEFISVPVPEFADSDPANIVHDFNKKLTAYLDLNLDKCYVIPLNTSIVMPPRNLLELLINIKAGTYLPQSYLIHEHMVITDRIENIDHLGFFIYRLCHDKETYKL
notes: Bri2 (integral membrane protein 2B), human, BRICHOS domain, residues 113-231 of full-length human Bri2; In the monomer Cys164 and Cys223 form an intramolecular disulfide; dimers and oligomers have intermolecular disulfides; also called Bri2 BRICHOS monomers; Bri2 BRICHOS dimers; source: E. coli, expressed and purified as previously described (monomer, dimer and oligomer species isolated)
With B1, in series [1], the stoichiometry N (commonly the number of molecules, sites or subunits per partner or assembly) is 2 and 4.

B2: NT*-Bri2 BRICHOScys mutant C223S (NT*-Bri2 BRICHOScys 164-164 dimer) (domain or fragment, human, UniProt Q9Y287 113-231, looked up)
chain: QTIEENIKIFEEEEVEFISVPVPEFADSDPANIVHDFNKKLTAYLDLNLDKCYVIPLNTSIVMPPRNLLELLINIKAGTYLPQSYLIHEHMVITDRIENIDHLGFFIYRLSHDKETYKL
modifications: intermolecular Cys164-Cys164 homodisulfide
notes: Bri2 (integral membrane protein 2B), human, BRICHOS domain, residues 113-231 of full-length human Bri2, C223S; NT* fusion kept as a means to tell the species apart by size; also called Cys164 dimers; source: E. coli, dimer fraction purified with NT* solubility tag
As for B2, the binding result in series [2] is recorded as “binds”.

B3: Bri2 BRICHOS Thr to Trp (T206W) mutant (domain or fragment, human, UniProt Q9Y287 113-231, looked up)
chain: QTIEENIKIFEEEEVEFISVPVPEFADSDPANIVHDFNKKLTAYLDLNLDKCYVIPLNTSIVMPPRNLLELLINIKAGTYLPQSYLIHEHMVIWDRIENIDHLGFFIYRLCHDKETYKL
notes: Bri2 (integral membrane protein 2B), human, BRICHOS domain, residues 113-231 of full-length human Bri2, T206W; also called Thr to Trp Bri2 BRICHOS mutant; source: E. coli, expressed and purified as previously described
With B3, the Kd in series [3] was 1 ± 0.2 µM.
In the case of B4, the binding result in series [2] is on record as “binds”.

B5: Bri2 BRICHOScys mutant C164S without NT* tag (Cys223-Cys223 dimer) (domain or fragment, human, UniProt Q9Y287 113-231, looked up)
chain: QTIEENIKIFEEEEVEFISVPVPEFADSDPANIVHDFNKKLTAYLDLNLDKSYVIPLNTSIVMPPRNLLELLINIKAGTYLPQSYLIHEHMVITDRIENIDHLGFFIYRLCHDKETYKL
modifications: intermolecular Cys223-Cys223 homodisulfide
notes: Bri2 (integral membrane protein 2B), human, BRICHOS domain, residues 113-231 of full-length human Bri2, C164S; also called Cys223 dimers; source: E. coli, dimer fraction purified without NT* solubility tag
For B5, the binding result in series [4] is listed as “binds”.
